Patent publication US20230181714A1

Experiments:
[1] = biological target: VEEV virus-like particles (VLPs) (Venezuelan equine encephalitis virus); experiment: ELISA, binding reactivity (FIG. 1)
[2] = biological target: recombinant EEEV E1 glycoprotein (Eastern equine encephalitis virus); experiment: ELISA, binding reactivity (FIG. 1)

Chain of VEEV virus-like particles (VLPs) (Venezuelan equine encephalitis virus) (P05674 335-757, chain 1 of 2): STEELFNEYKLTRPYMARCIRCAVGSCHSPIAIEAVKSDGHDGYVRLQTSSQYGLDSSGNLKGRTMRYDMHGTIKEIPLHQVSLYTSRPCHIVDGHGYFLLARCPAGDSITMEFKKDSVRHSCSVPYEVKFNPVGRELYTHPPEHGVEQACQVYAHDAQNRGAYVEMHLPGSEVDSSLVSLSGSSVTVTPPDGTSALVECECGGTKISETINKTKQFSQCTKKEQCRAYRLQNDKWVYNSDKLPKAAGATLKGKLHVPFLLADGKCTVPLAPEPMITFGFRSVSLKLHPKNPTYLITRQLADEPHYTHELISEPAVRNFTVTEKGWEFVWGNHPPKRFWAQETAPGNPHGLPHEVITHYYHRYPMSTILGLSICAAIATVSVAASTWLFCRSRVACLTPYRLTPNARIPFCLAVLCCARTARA
Chain of VEEV virus-like particles (VLPs) (Venezuelan equine encephalitis virus) (P05674 813-1254, chain 2 of 2): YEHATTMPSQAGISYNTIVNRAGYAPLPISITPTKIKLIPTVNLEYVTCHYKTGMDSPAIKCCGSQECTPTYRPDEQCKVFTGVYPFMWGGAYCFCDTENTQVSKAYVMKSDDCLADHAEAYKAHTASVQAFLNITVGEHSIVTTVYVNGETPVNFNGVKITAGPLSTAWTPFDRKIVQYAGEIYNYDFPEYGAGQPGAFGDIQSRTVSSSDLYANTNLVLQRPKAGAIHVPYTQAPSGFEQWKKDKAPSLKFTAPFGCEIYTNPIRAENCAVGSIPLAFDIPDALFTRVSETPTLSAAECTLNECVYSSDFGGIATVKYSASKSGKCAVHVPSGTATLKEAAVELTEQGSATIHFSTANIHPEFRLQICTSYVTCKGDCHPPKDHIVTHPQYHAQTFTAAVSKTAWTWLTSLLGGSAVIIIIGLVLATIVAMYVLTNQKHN

B1: VEE-52B (antibody, V domains shown)
VH: QVHLLQSGAEVKKPGASVKVSCKSSGHTFASHGISWVRQAPGQGLEWMGWISVYNGNTNYAQKFQGRVIMTTDTPTSTAYMELRSLRSDDTAVYYCAKDIPSASYTMDVWGEGTTVTV
VL: QSALTQPRSVSGSPGQSVTISCTGTSSDIGRYDYVSWYHQHPGKAPKLMIYDVTKRPSGVPDRFSGSKSGNTASLTISGLHADDEADYYCCSYAGSFYVFGTGTKVTVL
[1]
  EC50: < 0.02 µg/mL
[2]
  EC50: < 0.02 µg/mL

B2: VEE-81 (antibody, V domains shown)
VH: QVQLVQSGAEVKKPGASVKVSCKASGYTFTTYYIHWVRQAPGRGLEWMGIINSSGYNTYYAQKFQGRVTMTRDTSTSTVDMELSSLRSEDTAVYYCATSITTRAFDLWGQGTLVTVSS
VL: EIVLTQSPGTLSLSPGERVTLSCRASQSVSSIYLAWYQQRPGQAPRLLIYGASSRATGIPDRFSGSGSGTDFTLTIRRLEPEDFAVYYCQQYGSSPYTFGQGTKLEIK
[1]
  EC50: < 0.02 µg/mL
[2]
  EC50: < 0.02 µg/mL
